Results published in patent US20220387572A1 (CRISPR THERAPEUTICS, published 2022).

Target: T1, CD70 on human CD70+ renal cell carcinoma cell lines (A498, CD70 high; ACHN, CD70 low) (human, UniProt P32970 1-193)
T1 sequence (looked up): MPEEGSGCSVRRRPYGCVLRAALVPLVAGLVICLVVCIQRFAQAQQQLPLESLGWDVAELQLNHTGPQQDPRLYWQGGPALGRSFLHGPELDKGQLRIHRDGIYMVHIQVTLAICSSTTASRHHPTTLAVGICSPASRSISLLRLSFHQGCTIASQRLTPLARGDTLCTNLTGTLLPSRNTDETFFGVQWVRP
Test: cell-based or functional assay

B1: anti-CD70 CAR (CD70B scFv with 41BB), expressed on CTX130 cells (TRAC-/β2M-/CD70-/anti-CD70 CAR+ T cells) (other)
chain: QVQLVQSGAEVKKPGASVKVSCKASGYTFTNYGMNWVRQAPGQGLKWMGWINTYTGEPTYADAFKGRVTMTRDTSISTAYMELSRLRSDDTAVYYCARDYGDYGMDYWGQGTTVTVSSGGGGSGGGGSGGGGSGDIVMTQSPDSLAVSLGERATINCRASKSVSTSGYSFMHWYQQKPGQPPKLLIYLASNLESGVPDRFSGSGSGTDFTLTISSLQAEDVAVYYCQHSREVPWTFGQGTKVEIKSAAAFVPVFLPAKPTTTPAPRPPTPAPTIASQPLSLRPEACRPAAGGAVHTRGLDFACDIYIWAPLAGTCGVLLLSLVITLYCNHRNRKRGRKKLLYIFKQPFMRPVQTTQEEDGCSCRFPEEEEGGCELRVKFSRSADAPAYQQGQNQLYNELNLGRREEYDVLDKRRGRDPEMGGKPRRKNPQEGLYNELQKDKMAEAYSEIGMKGERRRGKGHDGLYQGLSTATKDTYDALHMQALPPR
- cell killing (CellTiter-Glo), TRAC-/β2M-/CD70-/anti-CD70 CAR+ T cells on CD70+ A498 cells, 24 h, T cell:A498 ratios 1:1 and 0.5:1: > 90%
- cell killing (CellTiter-Glo), TRAC-/β2M-/anti-CD70 CAR+ T cells (2xKO) on CD70+ A498 cells, 24 h, T cell:A498 ratios 1:1 and 0.5:1: < 90%
